The supplement of paper PMC6757056
± gives the standard deviation of the averaged measurements.

B1: library; a variant is named by its letters at N, in order (parent)
chain: GCUGUCACCGAGAAACUGUGAAGUAUAUCUUAAACCUGGGCACUUAAAAGAUAUAUGGAGUUAGUAGUGCAACCUGCUCGGUCUGAUGAGUCCNNNNNNGGACGAAACAGC

Assays:
cyclic di-GMP [1] = variants of: B1; assay: normalized RNA/DNA level without ligand (relative to sTRSVctl = 100) (log10 (% of sTRSVctl)); HEK293T; ligand: cyclic di-GMP (c-di-GMP-II aptamer); higher = less ribozyme self-cleavage, higher mRNA level; conditions: reporter: mCherry (pCS4076), ligand present: no
In short: (§1)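 Only sequences with at least 100 DNA reads were analyzed, from HEK293T cells transfected with 4 µg per 6-well well of ribozyme switch library plasmids 72 h before RNA extraction with EDTA. Any ligand was added 1 h before transfection. RNA level was defined as RNA over DNA reads, normalized to a spiked-in non-cleaving sequence or to the top sequences, then scaled and log-transformed. The top set was 25 sequences, and the scaling was ×100 followed by log10.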

cyclic di-GMP [2] = variants of: B1; assay: normalized RNA/DNA level with ligand (relative to sTRSVctl = 100) (log10 (% of sTRSVctl)); HEK293T; ligand: cyclic di-GMP (c-di-GMP-II aptamer); ligand concentration (+) RNA-Seq: 1 mM; higher = less ribozyme self-cleavage, higher mRNA level; conditions: reporter: mCherry (pCS4076), ligand present: yes
In short: as §1

Variant | normalized RNA/DNA level without ligand (log10) (cyclic di-GMP [1]) | normalized RNA/DNA level with ligand (log10) (cyclic di-GMP [2])
UCUUUG | 1.731 ± 0.0025 | 1.89 ± 0.069
UCUUUU | 1.744 ± 0.012 | 1.84 ± 0.073
UCUUUC | 1.755 ± 0.014 | 1.86 ± 0.089
UCUUUA | 1.65 ± 0.031 | 1.84 ± 0.11
ACUUGC | 1.69 ± 0.029 | 1.83 ± 0.084
ACUUGA | 1.49 ± 0.11 | 1.72 ± 0.13
ACUUGU | 1.668 ± 0.004 | 1.83 ± 0.1
ACUUGG | 1.59 ± 0.048 | 1.75 ± 0.13
CGACUC | 1.72 ± 0.03 | 1.86 ± 0.14
CGACUU | 1.44 ± 0.089 | 1.63 ± 0.12
GCUUUA | 1.63 ± 0.023 | 1.83 ± 0.1
GCUUUG | 1.66 ± 0.03 | 1.83 ± 0.13
GCUUUU | 1.67 ± 0.03 | 1.8 ± 0.11
GCUUUC | 1.58 ± 0.022 | 1.75 ± 0.11
UGACUG | 1.7 ± 0.033 | 1.84 ± 0.11
UGACUU | 1.68 ± 0.043 | 1.85 ± 0.13
UGACUA | 1.665 ± 0.0041 | 1.78 ± 0.084
CGACGC | 1.74 ± 0.04 | 1.82 ± 0.12
CGACGG | 1.667 ± 0.013 | 1.8 ± 0.16
CGACGU | 1.66 ± 0.034 | 1.84 ± 0.048
CCUUGC | 1.72 ± 0.059 | 1.83 ± 0.085
CCUUGA | 1.63 ± 0.029 | 1.83 ± 0.095
CCUUGU | 1.75 ± 0.058 | 1.86 ± 0.1
CCUUGG | 1.76 ± 0.081 | 1.9 ± 0.15

Variant | normalized RNA/DNA level without ligand (log10) (cyclic di-GMP [1]) | normalized RNA/DNA level with ligand (log10) (cyclic di-GMP [2])
AGAGCA | 1.806 ± 0.017 | 1.87 ± 0.098
CGAAAU | 1.42 ± 0.055 | 1.63 ± 0.12
CGAAAG | 1.78 ± 0.056 | 1.88 ± 0.046
UGACCU | 1.72 ± 0.016 | 1.87 ± 0.087
UGACCA | 1.7585 ± 0.0012 | 1.88 ± 0.074
UGACCC | 1.798 ± 0.013 | 1.89 ± 0.087
UGAAGG | 1.661 ± 0.00062 | 1.84 ± 0.08
UGAAGA | 1.62 ± 0.024 | 1.77 ± 0.13
UGAAGC | 1.679 ± 0.0046 | 1.83 ± 0.14
UCUUGG | 1.84 ± 0.039 | 1.93 ± 0.15
UCUUGU | 1.732 ± 0.004 | 1.88 ± 0.1
UCUUGC | 1.752 ± 0.0056 | 1.88 ± 0.11
ACUUCU | 1.707 ± 0.0019 | 1.84 ± 0.057
ACUUCG | 1.66 ± 0.067 | 1.79 ± 0.069
ACUUUC | 1.73 ± 0.042 | 1.85 ± 0.13
ACUUUG | 1.59 ± 0.037 | 1.76 ± 0.12
GGAAAA | 1.3 ± 0.025 | 1.49 ± 0.12
GGAAAC | 1.74 ± 0.088 | 1.83 ± 0.19
UGACGU | 1.57 ± 0.12 | 1.74 ± 0.13
UGACGA | 1.595 ± 0.015 | 1.78 ± 0.091
UGACGG | 1.68 ± 0.039 | 1.82 ± 0.11
AGACGG | 1.62 ± 0.088 | 1.78 ± 0.089
UGAGAA | 1.6654 ± 7.7e-05 | 1.81 ± 0.1
UGAGAU | 1.608 ± 0.0039 | 1.78 ± 0.11

Variant | normalized RNA/DNA level without ligand (log10) (cyclic di-GMP [1]) | normalized RNA/DNA level with ligand (log10) (cyclic di-GMP [2])
UGAGAC | 1.71 ± 0.022 | 1.8 ± 0.093
UGAGAG | 1.6931 ± 0.00099 | 1.87 ± 0.098
UGAAUG | 1.72 ± 0.037 | 1.86 ± 0.12
UGAAUA | 1.677 ± 0.0075 | 1.82 ± 0.096
UGAAUU | 1.683 ± 0.0066 | 1.84 ± 0.13
CCUUUU | 1.59 ± 0.065 | 1.77 ± 0.073
CCUUUG | 1.59 ± 0.078 | 1.77 ± 0.053
CCUUUC | 1.7 ± 0.021 | 1.85 ± 0.098
GGACGC | 1.656 ± 0.0062 | 1.82 ± 0.1
GCUUGU | 1.577 ± 0.005 | 1.75 ± 0.15
GCUUGG | 1.59 ± 0.023 | 1.8 ± 0.072
GCUUGA | 1.54 ± 0.08 | 1.76 ± 0.12
GCUUGC | 1.77 ± 0.057 | 1.87 ± 0.17
CGAACG | 1.75 ± 0.056 | 1.9 ± 0.089
CGAACU | 1.48 ± 0.18 | 1.72 ± 0.042
CGAACC | 1.679 ± 0.01 | 1.8 ± 0.098
AGAGAU | 1.661 ± 0.0087 | 1.79 ± 0.11
AGAGAG | 1.46 ± 0.09 | 1.64 ± 0.14
AGAGAC | 1.56 ± 0.035 | 1.69 ± 0.088
GGAAGC | 1.634 ± 0.0082 | 1.76 ± 0.054
CGAGAC | 1.643 ± 0.0051 | 1.77 ± 0.16
CGAGAG | 1.72 ± 0.022 | 1.84 ± 0.033
GGACCA | 1.72 ± 0.021 | 1.81 ± 0.021
GGACCU | 1.74 ± 0.07 | 1.85 ± 0.05

Variant | normalized RNA/DNA level without ligand (log10) (cyclic di-GMP [1]) | normalized RNA/DNA level with ligand (log10) (cyclic di-GMP [2])
GGAACC | 1.74 ± 0.039 | 1.86 ± 0.14
CGAGCC | 1.824 ± 0.0092 | 1.88 ± 0.083
CGAGCA | 1.83 ± 0.067 | 1.89 ± 0.12
GGACUC | 1.757 ± 0.0094 | 1.92 ± 0.082
UGACAA | 1.69 ± 0.018 | 1.8 ± 0.11
UGACAU | 1.62 ± 0.074 | 1.81 ± 0.075
UGACAG | 1.712 ± 0.0029 | 1.82 ± 0.097
UGACAC | 1.7 ± 0.022 | 1.87 ± 0.086
UCUUCU | 1.76 ± 0.066 | 1.84 ± 0.11
AGAAUA | 1.43 ± 0.091 | 1.63 ± 0.098
CGACAC | 1.594 ± 0.0068 | 1.76 ± 0.11
CGACAU | 1.43 ± 0.16 | 1.63 ± 0.12
CGACAG | 1.8 ± 0.023 | 1.87 ± 0.091
GGACAC | 1.71 ± 0.053 | 1.84 ± 0.13
AGACUC | 1.74 ± 0.054 | 1.83 ± 0.094
AGACUU | 1.679 ± 0.0077 | 1.84 ± 0.13
AGACUG | 1.749 ± 0.013 | 1.84 ± 0.071
UGAAAA | 1.73 ± 0.024 | 1.82 ± 0.1
UGAAAG | 1.77 ± 0.047 | 1.87 ± 0.1
UGAAAC | 1.705 ± 0.017 | 1.84 ± 0.062
CGAAUG | 1.66 ± 0.019 | 1.85 ± 0.047
CGAAUC | 1.6 ± 0.043 | 1.78 ± 0.11
CGACCC | 1.753 ± 0.014 | 1.88 ± 0.1
CGACCA | 1.667 ± 0.013 | 1.77 ± 0.12

Variant | normalized RNA/DNA level without ligand (log10) (cyclic di-GMP [1]) | normalized RNA/DNA level with ligand (log10) (cyclic di-GMP [2])
CGACCU | 1.54 ± 0.028 | 1.71 ± 0.09
AGACCA | 1.75 ± 0.031 | 1.88 ± 0.15
AGACCC | 1.79 ± 0.096 | 1.87 ± 0.18
AGACCU | 1.76 ± 0.057 | 1.895 ± 0.0095
UGAACA | 1.75 ± 0.037 | 1.87 ± 0.074
UGAACU | 1.72 ± 0.052 | 1.86 ± 0.11
UGAACC | 1.78 ± 0.022 | 1.86 ± 0.12
AGACAG | 1.55 ± 0.049 | 1.75 ± 0.15
AGACAC | 1.68 ± 0.042 | 1.82 ± 0.1
AGACAU | 1.62 ± 0.027 | 1.79 ± 0.12
GGAAUC | 1.55 ± 0.016 | 1.76 ± 0.09
GGAGAC | 1.72 ± 0.035 | 1.85 ± 0.059
AGAAGC | 1.56 ± 0.13 | 1.74 ± 0.077
AGAAGU | 1.57 ± 0.022 | 1.75 ± 0.16
AGAACG | 1.463 ± 0.001 | 1.67 ± 0.094
UGAGCA | 1.84 ± 0.073 | 1.91 ± 0.11
CGAAGG | 1.634 ± 0.0028 | 1.82 ± 0.097
CGAAGC | 1.7 ± 0.06 | 1.81 ± 0.054
CGAAGU | 1.676 ± 0.0054 | 1.84 ± 0.16
AGAAAU | 1.71 ± 0.03 | 1.83 ± 0.058
